This passage reports binding result and IC50 results from patent US20110112279A1 (Genentech, published 2011).

Bounds are passed on as bounds.

B1: S4 IgG (full-length human IgG1; LPG3-humankappaG6 and LPG4-humanHC-S4), expressed in CHO cells (antibody, V domains shown)
VH: EVQLVESGGGLVQPGGSLRLSCAASGFTISGSWIHWVRQAPGKGLEWVAWIAPYSGATDYADSVKGRFTISADTSKNTAYLQMNSLRAEDTAVYYCAREGGLYWVFDYWGQGTLVTVSS
VL: DIQMTQSPSSLSASVGDRVTITCRASQDVSTAVAWYQQKPGKAPKLLIYSASFLYSGVPSRFSGSGSGTDFTLTISSLQPEDFATYYCQQSYTTPPTFGQGTKVEIKR
notes: also called S4 antibody
B2: human STOP-1 short form (L94-K243) with C-terminal His tag, baculovirus expressed (ligand, not shown: small tags and cut ends)
chain: LRESFEESWTPNYKQCSWSSLNYGIDLGKIAECTFTKMRSNSALRVLFSGSLRLKCRNACCQRWYFTFNGAECSGPLPIEAIIYLDQGSPEMNSTINIHRTSSVEGLCEGIGAGLVDVAIWVGTCSDYPKGDASTGWNSVSRIIIEELPK
notes: also called #94-243; L94-K243-His
B3: human STOP-1 E89-K243 with C-terminal His tag, baculovirus expressed (ligand, not shown: small tags and cut ends)
chain: EKGECLRESFEESWTPNYKQCSWSSLNYGIDLGKIAECTFTKMRSNSALRVLFSGSLRLKCRNACCQRWYFTFNGAECSGPLPIEAIIYLDQGSPEMNSTINIHRTSSVEGLCEGIGAGLVDVAIWVGTCSDYPKGDASTGWNSVSRIIIEELPK
notes: A mix of trimeric and hexameric complexes by light scattering; also called E89-K243-His; E89humanSTOP-1-pAcGP67B
B4: human STOP-1 S31-K243 with C-terminal His tag, baculovirus expressed (ligand, not shown: small tags and cut ends)
chain: SEIPKGKQKAQLRQREVVDLYNGMCLQGPAGVPGRDGSPGANGIPGTPGIPGRDGFKGEKGECLRESFEESWTPNYKQCSWSSLNYGIDLGKIAECTFTKMRSNSALRVLFSGSLRLKCRNACCQRWYFTFNGAECSGPLPIEAIIYLDQGSPEMNSTINIHRTSSVEGLCEGIGAGLVDVAIWVGTCSDYPKGDASTGWNSVSRIIIEELPK
notes: Primarily trimeric by light scattering; also called S31-K243-His; S31humanSTOP-1-pAcGP67B
B5: human STOP-1 delta-THD (residues 1-54, 94-243, plus His), expressed in CHO-psgb cells (ligand)
chain: SEIPKGKQKAQLRQREVVDLYNGMLRESFEESWTPNYKQCSWSSLNYGIDLGKIAECTFTKMRSNSALRVLFSGSLRLKCRNACCQRWYFTFNGAECSGPLPIEAIIYLDQGSPEMNSTINIHRTSSVEGLCEGIGAGLVDVAIWVGTCSDYPKGDASTGWNSVSRIIIEELPKHHHHHHHH
notes: also called ΔTHDh762HIP; M1-M54 fused to L94-K243-His
B6: human STOP-1, full length, C-terminal 8xHis tag (h762HIP; M1-K243-His), expressed in CHO-psgb cells (ligand)
chain: SEIPKGKQKAQLRQREVVDLYNGMCLQGPAGVPGRDGSPGANGIPGTPGIPGRDGFKGEKGECLRESFEESWTPNYKQCSWSSLNYGIDLGKIAECTFTKMRSNSALRVLFSGSLRLKCRNACCQRWYFTFNGAECSGPLPIEAIIYLDQGSPEMNSTINIHRTSSVEGLCEGIGAGLVDVAIWVGTCSDYPKGDASTGWNSVSRIIIEELPKHHHHHHHH
notes: The secreted protein purified from medium lacks the signal peptide; Light scattering: about 58% hexamer and 42% trimer; also called UNQ762; full length form
B7: F5 F(ab)'2 displayed on M13 phage (V0350-4-F5) (other)
light: SDIQMTQSPSSLSASVGDRVTITCRASQDVSTAVAWYQQKPGKAPKLLIYSASFLYSGVPSRFSGSGSGTDFTLTISSLQPEDFATYYCQQSYTTPPTFGQGTKVEIKRTVAAPSVFIFPPSDEQLKSGTASVVCLLNNFYPREAKVQWKVDNALQSGNSQESVTEQDSKDSTYSLSSTLTLSKADYEKHKVYACEVTHQGLSSPVTKSFNRGECGASSGMADPNRFRGKDLA
heavy: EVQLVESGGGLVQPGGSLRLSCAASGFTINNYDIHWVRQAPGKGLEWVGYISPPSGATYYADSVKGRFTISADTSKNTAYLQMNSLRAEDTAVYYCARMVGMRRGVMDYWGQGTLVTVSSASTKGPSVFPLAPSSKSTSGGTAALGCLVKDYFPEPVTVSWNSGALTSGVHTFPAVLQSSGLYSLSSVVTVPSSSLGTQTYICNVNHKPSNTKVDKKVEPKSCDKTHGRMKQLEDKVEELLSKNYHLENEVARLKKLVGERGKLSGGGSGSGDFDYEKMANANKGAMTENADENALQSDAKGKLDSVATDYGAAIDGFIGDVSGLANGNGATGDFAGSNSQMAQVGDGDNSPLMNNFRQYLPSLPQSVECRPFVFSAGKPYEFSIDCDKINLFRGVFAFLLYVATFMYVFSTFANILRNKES
notes: also called F5-F(ab)'2-phage; F(ab)'2-F5 phage
B8: S9 Fab displayed on M13 phage (V0350-2b-S9) (Fab)
light: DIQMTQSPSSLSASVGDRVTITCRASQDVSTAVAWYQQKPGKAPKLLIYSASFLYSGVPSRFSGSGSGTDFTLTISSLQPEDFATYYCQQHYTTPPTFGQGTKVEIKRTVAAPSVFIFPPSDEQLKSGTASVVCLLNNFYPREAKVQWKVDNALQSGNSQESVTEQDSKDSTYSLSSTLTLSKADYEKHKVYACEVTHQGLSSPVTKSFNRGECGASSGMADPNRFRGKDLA
heavy: AYAEVQLVESGGGLVQPGGSLRLSCAASGFTISNYGIHWVRQAPGKGLEWVGRISPSNGSTYYADSVKGRFTISADTSKNTAYLQMNSLRAEDTAVYYCAKCSVRFAYWGQGTLVTVSSASTKGPSVFPLAPSSKSTSGGTAALGCLVKDYFPEPVTVSWNSGALTSGVHTFPAVLQSSGLYSLSSVVTVPSSSLGTQTYICNVNHKPSNTKVDKKVEPKSCDKTHL
notes: also called S9 (Fab)-phage
B9: S4 Fab displayed on M13 phage (V0350-2b-S4) (Fab, V domains shown)
VH: B1 VH
VL: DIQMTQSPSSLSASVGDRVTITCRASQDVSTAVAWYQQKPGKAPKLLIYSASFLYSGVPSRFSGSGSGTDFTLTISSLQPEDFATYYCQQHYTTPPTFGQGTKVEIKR
notes: Fab on phage: the heavy chain (VH-CH1) is fused to M13 cP3 and the light chain carries a gD tag; also called S4-Fab phage; S4 (Fab)-phage
B10: S7 F(ab)'2 displayed on M13 phage (V0350-4-S7) (other)
light: B7 light
heavy: AYAEVQLVESGGGLVQPGGSLRLSCAASGFTISGSDIHWVRQAPGKGLEWVGRISPYGGNTNYADSVKGRFTISADTSKNTAYLQMNSLRAEDTAVYYCARVGGLKLLFDYWGQGTLVTVSSASTKGPSVFPLAPSSKSTSGGTAALGCLVKDYFPEPVTVSWNSGALTSGVHTFPAVLQSSGLYSLSSVVTVPSSSLGTQTYICNVNHKPSNTKVDKKVEPKSCDKTHG
notes: also called S7-F(ab)'2-phage; F(ab)'2-S7 phage
B11: S16 F(ab)'2 displayed on M13 phage (V0350-4-S16) (other)
light: B7 light
heavy: AYAEVQLVESGGGLVQPGGSLRLSCAASGFTITNSDIHWVRQAPGKGLEWVATIYPYGGYTYYADSVKGRFTISADTSKNTAYLQMNSLRAEDTAVYYCARGGGMDGYVMDYWGQGTLVTVSSASTKGPSVFPLAPSSKSTSGGTAALGCLVKDYFPEPVTVSWNSGALTSGVHTFPAVLQSSGLYSLSSVVTVPSSSLGTQTYICNVNHKPSNTKVDKKVEPKSCDKTHG
notes: also called S16-F(ab)'2-phage; F(ab)'2-S16 phage

One series addresses B6. In words: blocking ELISA, legend of FIG. 22. On the procedure:
First, 96-well Nunc Maxisorp plates were coated with full length human STOP-1 (2 ug/ml in PBS) at 4° C. overnight or at room temperature for 2 hours. The wells were blocked by adding 65 ul 1% BSA for 30 minutes followed by 40 ul 1% Tween20 for another 30 minutes. Next, the wells were washed with PBS—0.05% Tween20 5 times. Various concentrations of S4 IgG (in ELISA buffer) were incubated in the wells for 30 minutes at room temperature. Then, S4 (Fab)-phage, S7 (F(ab)′₂)-phage, S9 (Fab)-phage, S16 (F(ab)′₂)-phage or F5 (F(ab)′₂)-phage were added to different wells for 10 minutes at a concentration that would normally produce 90% binding capacity in the absence of the S4 IgG antibody. The wells were washed with PBS—0.05% Tween20 5 times.
Binding was quantified by adding 75 ul/well of horse radish peroxidase (HRP)-conjugated anti-M13 antibody in PBS plus 0.5% BSA and 0.05% Tween20 at room temperature for 30 minutes (Sidhu et al., supra). […] Next, 100 ul/well of a 1:1 ratio of 3,3′,5,5′-tetramethylbenzidine (TMB) Peroxidase substrate and Peroxidase Solution B (H₂O₂) ((Kirkegaard-Perry Laboratories (Gaithersburg, Md.)) was added to the well. The reaction was stopped by adding 100 ul 1M Phosphoric Acid (H₃PO₄) ((Kirkegaard-Perry Laboratories (Gaithersburg, Md.)) to each well. The OD of the yellow color in each well was determined using a standard ELISA plate reader at 450 nm.
On the technique in general: In an ELISA, binding on a coated surface is turned into a signal by an enzyme label.
Turning to B1, the binding result was “binds”.

A further series concerns the molecule itself. In words: self-association; size exclusion chromatography with light scattering. On the procedure: Full length STOP-1-HIS proteins or various truncations thereof were expressed in SF9 baculovirus-infected cells or CHO cells as described above. The proteins were purified from the media by using Ni-NTA agarose beads as discussed above. The baculoviral-expressed proteins S31-K243-His, E89-K243-His, or L94-K243-His were loaded onto an 8 mm×300 mm Shodex KW802.5 size exclusion column and eluted with 100 mM NH₄HCO₃, 200 mM NH₄Cl pH7.8 at a flow rate of 1 ml/ml. CHO-psgb expressed full length proteins were loaded onto an 8 mm×300 mm Shodex KW804 size exclusion column and eluted with 25 mM sodium phosphate, 500 mM NaCl at a flow rate of 1 ml/ml. CHO-psgb expressed proteins, M1-M54 fused to L94-K243-His, were loaded onto an 8 mm×300 mm Shodex KW802.5 size exclusion column and eluted with 25 mM sodium phosphate, 500 mM NaCl at a flow rate of 1 ml/ml.
The eluted protein was analyzed by an Agilent Model 1100 HPLC system with an Agilent multi wavelength detector (UV) connected to a Wyatt MiniDAWN laser light scattering (LS) instrument and a Wyatt Optilab differential refractometer (RI). The average molecular weight of the proteins or their aggregates in each peak was determined by selecting a peak and using the Zimm fitting method (Phillip J. Wyatt, (1993) Analytica Chimica Acta 272:1-40) with the Astra software package (Wyatt, USA). The percentage of aggregation was calculated from the integrated peak areas of the UV signal at 214 nm. See FIG. 6 and FIG. 7 for results.
On the technique in general: Size exclusion chromatography separates by hydrodynamic size, large species first.
As for B2, the binding result is listed as “binds”. Still for that read-out and setting: to B3 belongs “binds”; to B4, “binds”; to B5, “binds”. For B6, the binding result is given as “binds”.

A further series has as its target B2. As to the kind of experiment: solution competition phage ELISA (762 S/S), short form coated and short form as competitor; ND = not detectable. On the procedure:
(§1) The wells were blocked by adding 65 ul 1% BSA for 30 minutes followed by 40 ul 1% Tween20 for another 30 minutes. Next, the wells were washed with PBS—0.05% Tween20 5 times. Various dilutions of F(ab) or F(ab)′₂ phage down to 0.1 O.D./ml in ELISA buffer (PBS—0.1% BSA and 0.05% Tween20) were added to the wells for 15 minutes at room temperature. The wells were then washed with PBS—0.05% Tween20 at least three times. 75 ul of HRP-conjugated anti-M13 antibody (Amersham, 1/5000 dilution with ELISA buffer) per well was added and incubated at room temperature for 30 minutes. The wells were washed again with PBS—0.05% Tween20 at least five times. Next, 100 ul/well of a 1:1 ratio of 3,3′,5,5′-tetramethylbenzidine (TMB) Peroxidase substrate and Peroxidase Solution B (H₂O₂) ((Kirkegaard-Perry Laboratories (Gaithersburg, Md.)) was added to the well and incubated for 5 minutes at room temperature. The reaction was stopped by adding 100 ul 1M Phosphoric Acid (H3PO₄) ((Kirkegaard-Perry Laboratories (Gaithersburg, Md.)) to each well. The optical density of the color in each well was determined using a standard ELISA plate reader at 450 nm. The dilutions of phage were plotted against the O.D. readings.
Third, a competition ELISA was performed. 96-well Nunc Maxisorp plates were coated with full length or short form human STOP-1 (2 ug/ml in PBS) at 4° C. overnight or at room temperature for 2 hours. […]
Take B7: the binding result is “no binding (tested: 0.1 to 500 nM competitor)”.

The next series deals with B2. In words: solution competition phage ELISA (762 S/S): short form coated, phage pre-incubated with short form STOP-1 in solution; IC50 is the STOP-1 concentration. On the procedure:
as §1
(§2) Third, a competition ELISA was performed. 96-well Nunc Maxisorp plates were coated with full length or short form human STOP-1 (2 ug/ml in PBS) at 4° C. overnight or at room temperature for 2 hours. The wells were blocked by adding 65 ul 1% BSA for 30 minutes followed by 40 ul 1% Tween20 for another 30 minutes. The wells were washed with PBS—0.05% Tween20 5 times. […] The unbound phage was assayed by transferring 75 ul of the well mixture to second 96-well plate pre-coated with full length or short form human STOP-1 and incubating at room temperature for 15 minutes. The wells of the second plate were washed with PBS—0.5% Tween20 at least three times. 75 ul of HRP-conjugated anti-M13 antibody ( 1/5000 dilution with ELISA buffer) per well was added and incubated at room temperature for 30 minutes. The wells were washed again with PBS—0.05% Tween20 at least five times.
B8: the concentration for half-maximal inhibition (IC50) (usually the concentration at which inhibition is half-maximal) was more than 1000 nM.

Molecule B9 registered an IC50 of 3 nM. In the case of B10, the IC50 turned out to be 35 nM.

The molecule B11 showed an IC50 of 114 nM.

A further series has as its target B6. In words: solution competition phage ELISA (762 S/F): short form coated, phage pre-incubated with full length STOP-1 in solution; IC50 is the STOP-1 concentration. On the procedure:
as §1, §2
For the molecule B8, the 50% inhibitory concentration (IC50) was found to be 331 nM. On the same count and under the same terms, for B9 the value was 719 nM; for B10, 4.7 nM. On the same count and under the same terms, to B7 belongs 1000 nM.

A further series concerns the target B6. As to the kind of experiment: solution competition phage ELISA (762 F/F): full length coated, phage pre-incubated with full length STOP-1 in solution; IC50 is the STOP-1 concentration. On the procedure: as §1, §2
For the molecule B9, the concentration for half-maximal inhibition (IC50) turned out to be 0.9 nM. B10 registered an IC50 of 2.7 nM. B11 showed a concentration for half-maximal inhibition (IC50) of 32 nM.
